In patent US20250382602:
Where a chain is given by its changes, count along the chain named.

What was measured:
Details in all cases: nanopore translocation; background mutations not given
[1] = target: T1, Dda 1993 K177S K177S (Enterobacteria phage T4) (UniProt P32270)
T1 sequence: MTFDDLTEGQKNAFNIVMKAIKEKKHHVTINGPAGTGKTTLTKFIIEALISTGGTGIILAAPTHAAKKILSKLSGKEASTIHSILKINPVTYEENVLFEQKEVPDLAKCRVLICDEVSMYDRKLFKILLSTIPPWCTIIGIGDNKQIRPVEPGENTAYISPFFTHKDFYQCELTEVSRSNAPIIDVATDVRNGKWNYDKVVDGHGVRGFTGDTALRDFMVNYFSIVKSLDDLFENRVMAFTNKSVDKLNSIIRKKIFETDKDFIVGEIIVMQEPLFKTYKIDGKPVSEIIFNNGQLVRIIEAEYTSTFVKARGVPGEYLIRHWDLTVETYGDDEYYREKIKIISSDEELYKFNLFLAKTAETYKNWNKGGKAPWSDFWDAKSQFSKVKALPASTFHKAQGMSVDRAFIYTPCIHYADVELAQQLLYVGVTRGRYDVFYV

[2] = target: T2, Dda 1993 K177N K177N (Enterobacteria phage T4) (UniProt P32270)
T2 sequence: T1 sequence with S177N

[3] = target: T3, Dda 1993 K177M K177M (Enterobacteria phage T4) (UniProt P32270)
T3 sequence: T1 sequence with S177M

[4] = target: T4, Dda 1993 K177Q K177Q (Enterobacteria phage T4) (UniProt P32270)
T4 sequence: T1 sequence with S177Q

Substance “barcoded 3.6 kb DNA analyte ligated to sequencing Y adaptor” has an activity (bps speed delta vs control) [1] of -31.1, an activity (bps speed delta vs control) [2] of 2.4 and an activity (bps speed delta vs control) [3] of 48.3. For the same substance, the activity (bps speed delta vs control) [4] was 59.7.
